Reference: patent US20260146073A1 (published 2026)

T1: WT p16INK4a (CDKN2A) peptide on HLA-A*02:01 (human)
T1 peptide: LPVDLAEEL

T2: WT p16INK4a (CDKN2A) peptide on HLA-A*02:01 (human)
T2 peptide: RLPVDLAEEL

T3: mutated CDKN2A, frameshift (p16INK4a -1 or +2 indels between M54 and W100); p14ARF -2 or +1 indels between G69 … (human)
T3 peptide: AVCPWTWLR

T4: mutated CDKN2A, frameshift (p16INK4a -1 or +2 indels between M54 and W100); p14ARF -2 or +1 indels between G69 … (human)
T4 peptide: AVCPWTWLR


Assays:
[1] = molecular target: T1, WT p16INK4a (CDKN2A) peptide on …; experiment: cytokine release
[2] = molecular target: T2, WT p16INK4a (CDKN2A) peptide on …; experiment: cytokine release
[3] = molecular target: T3, mutated CDKN2A, frameshift (p16INK4a -1 …); experiment: multimer staining
[4] = molecular target: T3, mutated CDKN2A, frameshift (p16INK4a -1 …); experiment: cytokine release
[5] = molecular target: T4, mutated CDKN2A, frameshift (p16INK4a -1 …); experiment: multimer staining

| binding result [1] | binding result [2] | other results | Binder |
| --- | --- | --- | --- |
| no recognition | no recognition | – | 4286 TCR 10-2 (TCR, V domains shown) Valpha: QKEVEQNSGPLSVPEGAIASLNCTYSDRGSQSFFWYRQYSGKSPELIMFIYSNGDKEDGRFTAQLNKASQYVSLLIRDSQPSDSATYLCAVPNSGYSTLTFGKGTMLLVSP Vbeta: GVTQSPTHLIKTRGQQVTLRCSPISGHKSVSWYQQVLGQGPQFIFQYYEKEERGRGNFPDRFSARQFPNYSSELNVNALLLGDSALYLCASRTGTVTNSYNEQFFGPGTRLTVL |
| no recognition | no recognition | – | 4286 TCR 10-1 (TCR, V domains shown) Valpha: QKEVEQNSGPLSVPEGAIASLNCTYSDRGSQSFFWYRQYSGKSPELIMFIYSNGDKEDGRFTAQLNKASQYVSLLIRDSQPSDSATYLCAVKSWVIFGKGTRLHILP Vbeta: GVTQSPTHLIKTRGQQVTLRCSPISGHKSVSWYQQVLGQGPQFIFQYYEKEERGRGNFPDRFSARQFPNYSSELNVNALLLGDSALYLCASSPSAQSSYGYTFGSGTRLTVV |
| – | – | binding result [3]: recognises | 3333 TCR-C (TCR, V domains shown) Valpha: QKEVEQNSGPLSVPEGAIASLNCTYSDRGSQSFFWYRQYSGKSPELIMSIYSNGDKEDGRFTAQLNKASQYVSLLIRDSQPSDSATYLCAVNRAREAAGNKLTFGGGTRVLVKP Vbeta: DIYQTPRYLVIGTGKKITLECSQTMGHDKMYWYQQDPGMELHLIHYSYGVNSTEKGDLSSESTVSRIRTEHFPLTLESARPSHTSQYLCASSRPGSEKLFFGSGTQLSVL |
| – | – | binding result [3]: recognises | 3333 TCR-A (TCR, V domains shown) Valpha: QKEVEQNSGPLSVPEGAIASLNCTYSDRGSQSFFWYRQYSGKSPELIMSIYSNGDKEDGRFTAQLNKASQYVSLLIRDSQPSDSATYLCAVNTASGTYKYIFGTGTRLKVLA Vbeta: not shown |
| – | – | binding result [4]: recognises; binding result [5]: recognises | 1913 TCR-41BB (TCR, V domains shown) Valpha: ELKVEQNPLFLSMQEGKNYTIYCNYSTTSDRLYWYRQDPGKSLESLFVLLSNGAVKQEGRLMASLDTKARLSTLHITAAVHDLSATYFCAVDPTGANSKLTFGKGITLSVRP Vbeta: GVTQTPKHLITATGQRVTLRCSPRSGDLSVYWYQQSLDQGLQFLIQYYNGEERAKGNILERFSAQQFPDLHSELNLSSLELGDSALYFCASSVAISGEETQYFGPGTRLLVL |
| no recognition | no recognition | – | 4286 TCR 10-3 (TCR, V domains shown) Valpha: QSVSQHNHHVILSEAASLELGCNYSYGGTVNLFWYVQYPGQHLQLLLKYFSGDPLVKGIKGFEAEFIKSKFSFNLRKPSVQWSDTAEYFCAVKDTGFQKLVFGTGTRLLVSP Vbeta: GAVVSQHPSWVICKSGTSVKIECRSLDFQATTMFWYRQFPKQSLMLMATSNEGSKATYEQGVEKDKFLINHASLTLSTLTVTSAHPEDSSFYICSARGGRNSFEQFFGPGTRLTVL |
| no recognition | no recognition | – | 4286 TCR 10-4 (TCR, V domains shown) Valpha: QSVSQHNHHVILSEAASLELGCNYSYGGTVNLFWYVQYPGQHLQLLLKYFSGDPLVKGIKGFEAEFIKSKFSFNLRKPSVQWSDTAEYFCAVKDTGFQKLVFGTGTRLLVSP Vbeta: GAVVSQHPSWVICKSGTSVKIECRSLDFQATTMFWYRQFPKQSLMLMATSNEGSKATYEQGVEKDKFLINHASLTLSTLTVTSAHPEDSSFYICSARGGARSYEQYFGPGTRLTVT |
